Drawing on patent US20110118447A1, this text covers fold difference in affinity vs original and fold affinity vs original for seven molecules.

Assay [1] addresses binding partner (antigen) of C5A (XPA23). The assay can be described thus: Biacore, K-off, fold vs original. In general terms: SPR reads the build-up and loss of mass on a sensor chip optically.
Assay [2] has as its target binding partner of C5A (XPA23). Briefly: Biacore.

B1: C5A (XPA23) VH Y107A (antibody, V domains shown)
VH: EVQLLESGGGLVQPGGSLRLSCAASGFTFSKYFMFWVRQAPGKGLEWVSVISPSGGMTRYADSVKGRFTISRDNSKNTLYLQMNSLRAEDTAVYYCARVGYGGNSDAWGQGTLVTVSS
VL: DIQMTQSPSSVSASVGDRLTIICRASQDINRWLAWYQQTPGNAPKLLIHSATSLQSGVPSRFSGSGSGTDFTLTINSLQPEDFATYYCQQADSFPLTFGGGTKVEIK
Take B1: the fold difference in affinity vs original in assay [1] and in assay [2] was 0.83 fold in each case.

B2: C5A (XPA23) VH Y107F (antibody, V domains shown)
VH: EVQLLESGGGLVQPGGSLRLSCAASGFTFSKYFMFWVRQAPGKGLEWVSVISPSGGMTRYADSVKGRFTISRDNSKNTLYLQMNSLRAEDTAVYYCARVGYGGNSDFWGQGTLVTVSS
VL: DIQMTQSPSSVSASVGDRLTIICRASQDINRWLAWYQQTPGNAPKLLIHSATSLQSGVPSRFSGSGSGTDFTLTINSLQPEDFATYYCQQADSFPLTFGGGTKVEIK
For the molecule B2, in assay [1], the fold difference in affinity vs original turned out to be 0.9 fold. Moreover, the fold affinity vs original in assay [2] was 0.9 fold.

B3: C5A (XPA23) VH Y107V (antibody, V domains shown)
VH: EVQLLESGGGLVQPGGSLRLSCAASGFTFSKYFMFWVRQAPGKGLEWVSVISPSGGMTRYADSVKGRFTISRDNSKNTLYLQMNSLRAEDTAVYYCARVGYGGNSDVWGQGTLVTVSS
VL: DIQMTQSPSSVSASVGDRLTIICRASQDINRWLAWYQQTPGNAPKLLIHSATSLQSGVPSRFSGSGSGTDFTLTINSLQPEDFATYYCQQADSFPLTFGGGTKVEIK
B3: the fold difference in affinity vs original in assay [1] and in assay [2] was 0.93 fold throughout.

B4: C5A (XPA23) VH Y107W (antibody, V domains shown)
VH: EVQLLESGGGLVQPGGSLRLSCAASGFTFSKYFMFWVRQAPGKGLEWVSVISPSGGMTRYADSVKGRFTISRDNSKNTLYLQMNSLRAEDTAVYYCARVGYGGNSDWWGQGTLVTVSS
VL: DIQMTQSPSSVSASVGDRLTIICRASQDINRWLAWYQQTPGNAPKLLIHSATSLQSGVPSRFSGSGSGTDFTLTINSLQPEDFATYYCQQADSFPLTFGGGTKVEIK
B4: the fold difference in affinity vs original in assay [1] was found to be 0.89 fold. Besides, the fold affinity vs original in assay [2] is 0.89 fold.

B5: C5A (XPA23) VH Y107L (antibody, V domains shown)
VH: EVQLLESGGGLVQPGGSLRLSCAASGFTFSKYFMFWVRQAPGKGLEWVSVISPSGGMTRYADSVKGRFTISRDNSKNTLYLQMNSLRAEDTAVYYCARVGYGGNSDLWGQGTLVTVSS
VL: DIQMTQSPSSVSASVGDRLTIICRASQDINRWLAWYQQTPGNAPKLLIHSATSLQSGVPSRFSGSGSGTDFTLTINSLQPEDFATYYCQQADSFPLTFGGGTKVEIK
As for B5, the fold difference in affinity vs original in assay [1] and in assay [2] was 0.86 fold in each case.

B6: C5A (XPA23) VH Y107I (antibody, V domains shown)
VH: EVQLLESGGGLVQPGGSLRLSCAASGFTFSKYFMFWVRQAPGKGLEWVSVISPSGGMTRYADSVKGRFTISRDNSKNTLYLQMNSLRAEDTAVYYCARVGYGGNSDIWGQGTLVTVSS
VL: DIQMTQSPSSVSASVGDRLTIICRASQDINRWLAWYQQTPGNAPKLLIHSATSLQSGVPSRFSGSGSGTDFTLTINSLQPEDFATYYCQQADSFPLTFGGGTKVEIK
Turning to B6, the fold difference in affinity vs original in assay [1] and in assay [2] was 0.96 fold in each case.

B7: C5A (XPA23) VH Y107P (antibody, V domains shown)
VH: EVQLLESGGGLVQPGGSLRLSCAASGFTFSKYFMFWVRQAPGKGLEWVSVISPSGGMTRYADSVKGRFTISRDNSKNTLYLQMNSLRAEDTAVYYCARVGYGGNSDPWGQGTLVTVSS
VL: DIQMTQSPSSVSASVGDRLTIICRASQDINRWLAWYQQTPGNAPKLLIHSATSLQSGVPSRFSGSGSGTDFTLTINSLQPEDFATYYCQQADSFPLTFGGGTKVEIK
Take B7: the fold difference in affinity vs original in assay [1] and in assay [2] was 0.04 fold throughout.
